Experimental data: US20250171562A1

Target: mixture of three Der p 2 specific recombinant human IgE clones H10, H12, P4E (human) (UniProt P01854)
Assay: RBL-SX38 IgE displacement, FACS

Chain of mixture of three Der p 2 specific recombinant human IgE clones H10, H12, P4E (human) (P01854 other isoform, or with tags, fused parts or gaps): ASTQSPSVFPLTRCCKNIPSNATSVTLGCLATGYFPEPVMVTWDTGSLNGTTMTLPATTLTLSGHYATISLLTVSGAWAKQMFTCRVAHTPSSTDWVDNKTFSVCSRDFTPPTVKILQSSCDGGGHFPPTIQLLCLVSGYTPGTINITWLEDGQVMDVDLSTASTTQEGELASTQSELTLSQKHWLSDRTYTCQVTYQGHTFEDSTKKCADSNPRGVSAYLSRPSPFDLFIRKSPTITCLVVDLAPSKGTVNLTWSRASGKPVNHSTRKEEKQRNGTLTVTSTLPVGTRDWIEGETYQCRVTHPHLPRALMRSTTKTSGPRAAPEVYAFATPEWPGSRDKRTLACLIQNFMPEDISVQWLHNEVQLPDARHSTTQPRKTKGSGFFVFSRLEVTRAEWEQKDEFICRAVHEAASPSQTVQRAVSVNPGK

Row | Binder | EC50 [nM] | Max effect/effect 1 µM [%]
1 | CIgG4F4A1(G4S)3 (Fc fusion) chain 1: GPPCPPCPAPEFLGGPSVFLFPPKPKDTLMISRTPEVTCVVVDVSQEDPEVQFNWYVDGVEVHNAKTKPREEQFNSTYRVVSVLTVLHQDWLNGKEYKCKVSNKGLPSSIEKTISKAKGQPREPQVYTLPPCQEEMTKNQVSLWCLVKGFYPSDIAVEWESNGQPENNYKTTPPVLDSDGSFFLYSRLTVDKSRWQEGNVFSCSVMHEALHNHYTQKSLSLSLGKGGGGSGGGGSGGGGSDVQLQESGGGLVQAGGSLRLSCAVSGLSFSSMGWFRQPPGKEREFVAAISLYSGSTYYADSVKGRFTISSDNAKSTVYLQMNSLKPEDAAVYFCAADRQRTWSTFYASRQATYNYWGQGTQVTVTS chain 2: GPPCPPCPAPEFLGGPSVFLFPPKPKDTLMISRTPEVTCVVVDVSQEDPEVQFNWYVDGVEVHNAKTKPREEQFNSTYRVVSVLTVLHQDWLNGKEYKCKVSNKGLPSSIEKTISKAKGQPREPQVCTLPPSQEEMTKNQVSLSCAVKGFYPSDIAVEWESNGQPENNYKTTPPVLDSDGSFFLVSRLTVDKSRWQEGNVFSCSVMHEALHNHYTQKSLSLSLGKGGGGSGGGGSGGGGSEVQLLESGGGLVQPGGSLRLSCAASGFTFGNYDMAWVRQAPGKRPEWVSSIDTGGDITHYADSVKGRFTISRDNAKNTLYLQMNSLRPEDTAVYWCATDEEYALGPNEFDYYGQGTLVTVSS | 1.2 | 97
2 | CIgG4F4A1(RS) (Fc fusion) chain 1: GPPCPPCPAPEFLGGPSVFLFPPKPKDTLMISRTPEVTCVVVDVSQEDPEVQFNWYVDGVEVHNAKTKPREEQFNSTYRVVSVLTVLHQDWLNGKEYKCKVSNKGLPSSIEKTISKAKGQPREPQVYTLPPCQEEMTKNQVSLWCLVKGFYPSDIAVEWESNGQPENNYKTTPPVLDSDGSFFLYSRLTVDKSRWQEGNVFSCSVMHEALHNHYTQKSLSLSLGKRSDVQLQESGGGLVQAGGSLRLSCAVSGLSFSSMGWFRQPPGKEREFVAAISLYSGSTYYADSVKGRFTISSDNAKSTVYLQMNSLKPEDAAVYFCAADRQRTWSTFYASRQATYNYWGQGTQVTVTS chain 2: GPPCPPCPAPEFLGGPSVFLFPPKPKDTLMISRTPEVTCVVVDVSQEDPEVQFNWYVDGVEVHNAKTKPREEQFNSTYRVVSVLTVLHQDWLNGKEYKCKVSNKGLPSSIEKTISKAKGQPREPQVCTLPPSQEEMTKNQVSLSCAVKGFYPSDIAVEWESNGQPENNYKTTPPVLDSDGSFFLVSRLTVDKSRWQEGNVFSCSVMHEALHNHYTQKSLSLSLGKRSEVQLLESGGGLVQPGGSLRLSCAASGFTFGNYDMAWVRQAPGKRPEWVSSIDTGGDITHYADSVKGRFTISRDNAKNTLYLQMNSLRPEDTAVYWCATDEEYALGPNEFDYYGQGTLVTVSS | 1.2 | 99
3 | NIgG4F4A1(G4S)2 (Fc fusion) chain 1: DVQLQESGGGLVQAGGSLRLSCAVSGLSFSSMGWFRQPPGKEREFVAAISLYSGSTYYADSVKGRFTISSDNAKSTVYLQMNSLKPEDAAVYFCAADRQRTWSTFYASRQATYNYWGQGTQVTVTSGGGGSGGGGSGPPCPPCPAPEFLGGPSVFLFPPKPKDTLMISRTPEVTCVVVDVSQEDPEVQFNWYVDGVEVHNAKTKPREEQFNSTYRVVSVLTVLHQDWLNGKEYKCKVSNKGLPSSIEKTISKAKGQPREPQVYTLPPCQEEMTKNQVSLWCLVKGFYPSDIAVEWESNGQPENNYKTTPPVLDSDGSFFLYSRLTVDKSRWQEGNVFSCSVMHEALHNHYTQKSLSLSLGK chain 2: EVQLLESGGGLVQPGGSLRLSCAASGFTFGNYDMAWVRQAPGKRPEWVSSIDTGGDITHYADSVKGRFTISRDNAKNTLYLQMNSLRPEDTAVYWCATDEEYALGPNEFDYYGQGTLVTVSSGGGGSGGGGSGPPCPPCPAPEFLGGPSVFLFPPKPKDTLMISRTPEVTCVVVDVSQEDPEVQFNWYVDGVEVHNAKTKPREEQFNSTYRVVSVLTVLHQDWLNGKEYKCKVSNKGLPSSIEKTISKAKGQPREPQVCTLPPSQEEMTKNQVSLSCAVKGFYPSDIAVEWESNGQPENNYKTTPPVLDSDGSFFLVSRLTVDKSRWQEGNVFSCSVMHEALHNHYTQKSLSLSLGK | 21.1 | 97
4 | NIgG4F4A1(G4S)3 (Fc fusion) chain 1: DVQLQESGGGLVQAGGSLRLSCAVSGLSFSSMGWFRQPPGKEREFVAAISLYSGSTYYADSVKGRFTISSDNAKSTVYLQMNSLKPEDAAVYFCAADRQRTWSTFYASRQATYNYWGQGTQVTVTSGGGGSGGGGSGGGGSGPPCPPCPAPEFLGGPSVFLFPPKPKDTLMISRTPEVTCVVVDVSQEDPEVQFNWYVDGVEVHNAKTKPREEQFNSTYRVVSVLTVLHQDWLNGKEYKCKVSNKGLPSSIEKTISKAKGQPREPQVYTLPPCQEEMTKNQVSLWCLVKGFYPSDIAVEWESNGQPENNYKTTPPVLDSDGSFFLYSRLTVDKSRWQEGNVFSCSVMHEALHNHYTQKSLSLSLGK chain 2: EVQLLESGGGLVQPGGSLRLSCAASGFTFGNYDMAWVRQAPGKRPEWVSSIDTGGDITHYADSVKGRFTISRDNAKNTLYLQMNSLRPEDTAVYWCATDEEYALGPNEFDYYGQGTLVTVSSGGGGSGGGGSGGGGSGPPCPPCPAPEFLGGPSVFLFPPKPKDTLMISRTPEVTCVVVDVSQEDPEVQFNWYVDGVEVHNAKTKPREEQFNSTYRVVSVLTVLHQDWLNGKEYKCKVSNKGLPSSIEKTISKAKGQPREPQVCTLPPSQEEMTKNQVSLSCAVKGFYPSDIAVEWESNGQPENNYKTTPPVLDSDGSFFLVSRLTVDKSRWQEGNVFSCSVMHEALHNHYTQKSLSLSLGK | 44.5 | 85
5 | NIgG4F5A1(G4S)1 (Fc fusion) chain 1: DVQLQESGGGLVQPGGSLRLSCAASGSIFSIDIMGWYRQAPGKQRELVATMPEGNYINYADSVKGRLTLSRDKGKNTVYLQLNSLKPEDTAVYYCYGFGVREGRGNVYWGQGTQVTVSGGGGSGPPCPPCPAPEFLGGPSVFLFPPKPKDTLMISRTPEVTCVVVDVSQEDPEVQFNWYVDGVEVHNAKTKPREEQFNSTYRVVSVLTVLHQDWLNGKEYKCKVSNKGLPSSIEKTISKAKGQPREPQVYTLPPCQEEMTKNQVSLWCLVKGFYPSDIAVEWESNGQPENNYKTTPPVLDSDGSFFLYSRLTVDKSRWQEGNVFSCSVMHEALHNHYTQKSLSLSLGK chain 2: EVQLLESGGGLVQPGGSLRLSCAASGFTFGNYDMAWVRQAPGKRPEWVSSIDTGGDITHYADSVKGRFTISRDNAKNTLYLQMNSLRPEDTAVYWCATDEEYALGPNEFDYYGQGTLVTVSSGGGGSGPPCPPCPAPEFLGGPSVFLFPPKPKDTLMISRTPEVTCVVVDVSQEDPEVQFNWYVDGVEVHNAKTKPREEQFNSTYRVVSVLTVLHQDWLNGKEYKCKVSNKGLPSSIEKTISKAKGQPREPQVCTLPPSQEEMTKNQVSLSCAVKGFYPSDIAVEWESNGQPENNYKTTPPVLDSDGSFFLVSRLTVDKSRWQEGNVFSCSVMHEALHNHYTQKSLSLSLGK | 28.9 | 67

The next binders have a lower EC50 than those just listed; values first:

Row | EC50 [nM] | Max effect/effect 1 µM [%] | Binder
6 | 0.9 | 100 | CIgG4F4A1(G4S)2 (Fc fusion) chain 1: GPPCPPCPAPEFLGGPSVFLFPPKPKDTLMISRTPEVTCVVVDVSQEDPEVQFNWYVDGVEVHNAKTKPREEQFNSTYRVVSVLTVLHQDWLNGKEYKCKVSNKGLPSSIEKTISKAKGQPREPQVYTLPPCQEEMTKNQVSLWCLVKGFYPSDIAVEWESNGQPENNYKTTPPVLDSDGSFFLYSRLTVDKSRWQEGNVFSCSVMHEALHNHYTQKSLSLSLGKGGGGSGGGGSDVQLQESGGGLVQAGGSLRLSCAVSGLSFSSMGWFRQPPGKEREFVAAISLYSGSTYYADSVKGRFTISSDNAKSTVYLQMNSLKPEDAAVYFCAADRQRTWSTFYASRQATYNYWGQGTQVTVTS chain 2: GPPCPPCPAPEFLGGPSVFLFPPKPKDTLMISRTPEVTCVVVDVSQEDPEVQFNWYVDGVEVHNAKTKPREEQFNSTYRVVSVLTVLHQDWLNGKEYKCKVSNKGLPSSIEKTISKAKGQPREPQVCTLPPSQEEMTKNQVSLSCAVKGFYPSDIAVEWESNGQPENNYKTTPPVLDSDGSFFLVSRLTVDKSRWQEGNVFSCSVMHEALHNHYTQKSLSLSLGKGGGGSGGGGSEVQLLESGGGLVQPGGSLRLSCAASGFTFGNYDMAWVRQAPGKRPEWVSSIDTGGDITHYADSVKGRFTISRDNAKNTLYLQMNSLRPEDTAVYWCATDEEYALGPNEFDYYGQGTLVTVSS
7 | 0.9 | 100 | CIgG4F4A1(G4S)1 (Fc fusion) chain 1: GPPCPPCPAPEFLGGPSVFLFPPKPKDTLMISRTPEVTCVVVDVSQEDPEVQFNWYVDGVEVHNAKTKPREEQFNSTYRVVSVLTVLHQDWLNGKEYKCKVSNKGLPSSIEKTISKAKGQPREPQVYTLPPCQEEMTKNQVSLWCLVKGFYPSDIAVEWESNGQPENNYKTTPPVLDSDGSFFLYSRLTVDKSRWQEGNVFSCSVMHEALHNHYTQKSLSLSLGKGGGGSDVQLQESGGGLVQAGGSLRLSCAVSGLSFSSMGWFRQPPGKEREFVAAISLYSGSTYYADSVKGRFTISSDNAKSTVYLQMNSLKPEDAAVYFCAADRQRTWSTFYASRQATYNYWGQGTQVTVTS chain 2: GPPCPPCPAPEFLGGPSVFLFPPKPKDTLMISRTPEVTCVVVDVSQEDPEVQFNWYVDGVEVHNAKTKPREEQFNSTYRVVSVLTVLHQDWLNGKEYKCKVSNKGLPSSIEKTISKAKGQPREPQVCTLPPSQEEMTKNQVSLSCAVKGFYPSDIAVEWESNGQPENNYKTTPPVLDSDGSFFLVSRLTVDKSRWQEGNVFSCSVMHEALHNHYTQKSLSLSLGKGGGGSEVQLLESGGGLVQPGGSLRLSCAASGFTFGNYDMAWVRQAPGKRPEWVSSIDTGGDITHYADSVKGRFTISRDNAKNTLYLQMNSLRPEDTAVYWCATDEEYALGPNEFDYYGQGTLVTVSS
8 | 0.7 | 99 | NIgG4F5A1(RS) (Fc fusion) chain 1: DVQLQESGGGLVQPGGSLRLSCAASGSIFSIDIMGWYRQAPGKQRELVATMPEGNYINYADSVKGRLTLSRDKGKNTVYLQLNSLKPEDTAVYYCYGFGVREGRGNVYWGQGTQVTVSRSGPPCPPCPAPEFLGGPSVFLFPPKPKDTLMISRTPEVTCVVVDVSQEDPEVQFNWYVDGVEVHNAKTKPREEQFNSTYRVVSVLTVLHQDWLNGKEYKCKVSNKGLPSSIEKTISKAKGQPREPQVYTLPPCQEEMTKNQVSLWCLVKGFYPSDIAVEWESNGQPENNYKTTPPVLDSDGSFFLYSRLTVDKSRWQEGNVFSCSVMHEALHNHYTQKSLSLSLGK chain 2: EVQLLESGGGLVQPGGSLRLSCAASGFTFGNYDMAWVRQAPGKRPEWVSSIDTGGDITHYADSVKGRFTISRDNAKNTLYLQMNSLRPEDTAVYWCATDEEYALGPNEFDYYGQGTLVTVSSRSGPPCPPCPAPEFLGGPSVFLFPPKPKDTLMISRTPEVTCVVVDVSQEDPEVQFNWYVDGVEVHNAKTKPREEQFNSTYRVVSVLTVLHQDWLNGKEYKCKVSNKGLPSSIEKTISKAKGQPREPQVCTLPPSQEEMTKNQVSLSCAVKGFYPSDIAVEWESNGQPENNYKTTPPVLDSDGSFFLVSRLTVDKSRWQEGNVFSCSVMHEALHNHYTQKSLSLSLGK
